{"source": "patent US20250092100A1", "key": {"HA-tagged Ran": {"molecular_target": "HA-tagged Ran (UniProt P62826)", "assay": "co-immunoprecipitation in tsA-201 cells, HA antibody pull-down of HA-Ran, anti-FLAG Western blot quantified"}, "GST-Ran": {"molecular_target": "GST-Ran (UniProt P62826)", "assay": "GST pull-down, GST-Ran bait, lysate of tsA201 cells with FLAG-MOG1 as prey, anti-FLAG Western blot quantified"}}, "data": [{"substance": "E50K MOG1 mutant tagged with FLAG (from UniProt Q9HD47 1-186)", "values": [{"measurement": "reduction of binding to Ran compared with the wild-type MOG1", "setting": "HA-tagged Ran", "value": 92, "unit": "%"}, {"measurement": "reduction of binding to Ran compared with the wild-type MOG1", "setting": "GST-Ran", "value": 95, "unit": "%"}]}]}
